In the nanobody polyreactivity screen of Harvey et al. (2022):

assay: yeast display, Sf9 membrane polyspecificity reagent, FACS + sequencing; frameworks hold sequencing errors
Procedure, shortened: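 Nanobodies came from a synthetic yeast display library in Saccharomyces cerevisiae BJ5465, induced with galactose for 36–48 hours and stained for 1 hour at 4 °C with 10% biotinylated, detergent-solubilized Sf9 membrane reagent. Cells were enriched on streptavidin microbeads and then FACS-sorted, with low and high (top ~1%) gates set on anti-HA fluorescence for expression and streptavidin fluorescence for reagent binding. Each polyreactivity label reflects the gate a clone came from. Genes were amplified by colony PCR, sequenced by MiSeq 2 × 250 and filtered by CDR length.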

For “QVQLVDSGGGLVQAGGSLRLSCAASGSIFRYKAMGWYRQAPGKERELVAAISWSGGRTYYADSVKGRFTISRDNAKNTVYLQMNSLKPEDTAVYYCAAAWYSSSRYQGIYRFAYWGQGTQVTVSS”, which “polyreactivity (PSR sort gate)” value is on record?
The value was “high polyreactivity”.

For “QVQLVESGGGLVQAGGSLRLSCAASGITFRGYAMGWYRQAPGKERELVAAITWSGGSTYYADSVKGRFTISRDNAKNTVYLQMNSLKPEDTAVYYCAAYSLHNYLSEYGYWGQGTQVTVSS”, which “polyreactivity (PSR sort gate)” value is on record?
The value was “high polyreactivity”.

With “QVPLVESGGGLVQSGGSLRLSCAASGSTCSRNAMGWYREAPGKERELVAAINDSGGSTYYADSVKGRFTISRDMAKNTVYLQMNSLKPEDTAVYYCNAVSPYYWDFRYDYWGQGTQVTVSS” as the sequence, how does the “polyreactivity (PSR sort gate)” value read?
The value was “high polyreactivity”.

With “QVQLVESGGGLVQAGGSLRLSCAASGSTFIYYAMGWYRQAPGKERELVAVITGNGGRTYYADSVKGRFTISRDNAKNTVYLQMNSLKPEDTAVYYCAALYDGIYDSWGQGTQVTVSS” as the sequence, how does the “polyreactivity (PSR sort gate)” value read?
The value was “high polyreactivity”.

For “QVQLEESGGGLVQAGGSLRLSCAASGRILAKYAMGWYRPAPRKEREFVDAISYSGGSTYYADSVKGRFTISRDNAKNNVYLLMNRLKPEYTAVYYCAASSYVLYRTRKMYFWGQGTQVTVSS”, which “polyreactivity (PSR sort gate)” value is on record?
Its value is “high polyreactivity”.

For “QVQLVESGGGLDQAGGSLRLSWAASAFIFGLYAMGWYRQAPGKERELVAAITSVESTKYADSVKGRFTISRDHAKNTVYLQMNSLKPEDTAVYYCATDWSLEDDYWGQGTQVTVSS”, which “polyreactivity (PSR sort gate)” value is on record?
Its value is “low polyreactivity”.

With “QVQLVESGGGLVQAGGSLRLSCAASGLTFAENAMGWYRQAPGKERELVAAISASGGSTYYADSVKGRFTISRDNAKNTVFLQMNSLKPEDTAVYYCATRVAFLWPRRDYDYWGQGTQVTVSS” as the sequence, how does the “polyreactivity (PSR sort gate)” value read?
The value was “low polyreactivity”.

Which “polyreactivity (PSR sort gate)” value does the source give for “QVQLVESGGGLVQAGGSLRLSCAASGRTFGYNAMGWYRQAPGKERELVAAIRTIGDSTYYADSVKGRFTISRDNAKNTVYLQMNSLKPEDTAVYYCAARKLRSRYDYWGQGTQVTVSS” here?
The value was “high polyreactivity”.

With “QVQLVESGGCLVQAGGSLRLSCAASGFTFPNAMGWYIQAPGKERELDATISSSGGSTYYADSVKGRFTISRDNAKNTVYLQMNSLKPEDTAVFYCAARTRQYLIYRAYRYDYWGQGTQVTVSS” as the sequence, how does the “polyreactivity (PSR sort gate)” value read?
Its value is “low polyreactivity”.

With “QVQLVESGGGLVQAGGSLRLSCAASGFTFFRYAMGWYRQAPGKERELVATITSGGTTNYADSVKGRFTISRDNAKNTVYLQMNSLKPEDTAVYYCAARTYPSYYVTFEYWGQGTQVTVSS” as the sequence, how does the “polyreactivity (PSR sort gate)” value read?
The value was “low polyreactivity”.

With “QVQLVESGGGLVQAGGSLRLSCAASGIIFRYNTMGWYRQEPGKERELVAAISWSGDSTYYADSVKGRFTISRDNAKNTVYLQMNSLKPEDTAVYYCARSQFSRSPSRMGYWGEGTQVTVSS” as the sequence, how does the “polyreactivity (PSR sort gate)” value read?
Its value is “high polyreactivity”.

For “QVQLVESGGGIVQAGGSLRFSCAASGSTFLYYAMGWYRLAPGKETEFVADISFSGGSTYYADSVKGRFTSSRDNAKNTVYLQMNSLKPEDTGVYNCAARKKEYKAGNYWGQGTQVNVSS”, which “polyreactivity (PSR sort gate)” value is on record?
The value was “low polyreactivity”.

Which “polyreactivity (PSR sort gate)” value does the source give for “QVQLVESGGGLVQAGGSLRLSCAASGRIFLRNDMGWYRQAPGKERELFAGISSDGSTYYADSVKGRFTISRDNAKNTVYLQMNSLKPEDTAVYYCAAERWGNPTDYQFWRPYDYWGQGTKVTVSS” here?
The value was “low polyreactivity”.

Which “polyreactivity (PSR sort gate)” value does the source give for “QVQLVESGGGLVQAGGSLRLSCAASGSTFEYYAMGWYRQAPGKERELVAAITGSGDNTYYADSVKGRFTISRDYAKNTVYLQMNSLKPEDTAVYYCAATLRVKGQYGRMYYWGQGTQVTVSS” here?
The value was “high polyreactivity”.

Which “polyreactivity (PSR sort gate)” value does the source give for “QVQLVESGGGLVQAGGSLRLSCAASGRIFFYNAMGWYRQAHGKERELVAAISARGDRTYYADSVKGRFTISRDNAKNTVYLQMNSLKPEDTAVYYCAADYYNYRYDYWGQGTQVTVSS” here?
The value was “high polyreactivity”.

For “QDQLVDTVGGLVQAGGSLRLSCAASGRTFWFYAMGWYRQAPGKESELVASITTGGGTNYADSVKGRFTISRDNAKITVYLQMNSLKPEDTAVYYCAVKRYHFGSGVDWYGGSSYGYWGQGTQVTVSS”, which “polyreactivity (PSR sort gate)” value is on record?
Its value is “high polyreactivity”.

For “QVQLVESGGGLVQAGGSLRLSCAASGITFYYYAMGWYRQAPGKERELVASISQSGGSTYYAASVKGRFSISRDNAKNTVYLQMNSLKPEDTAVYYCAADPGRYYPMYYWGQGTQVTVSS”, which “polyreactivity (PSR sort gate)” value is on record?
The value was “low polyreactivity”.

For “QVQLVESGGGLVQAGGSLRLICAASGSTFYWYMGWYRQAPGKERELVAAITSGGRTYYADSVKGRFTISRDNAKNTVYLQMNSLKPEDTAVYYCATTRRYAYRGGHNYWGQGTQVTVSS”, which “polyreactivity (PSR sort gate)” value is on record?
Its value is “high polyreactivity”.

For “QVQLVESGGGLVQAGGSLRLSCAASGSTFPGNAMGWYRQAPGKERELVAAIRDRGTSTYYADSVKGRFTISRDNAKNTVYLQMNSLNPEDTAVYYCAARSFTADLGYYWGQGTQVTVSS”, which “polyreactivity (PSR sort gate)” value is on record?
The value was “high polyreactivity”.

For “QVQLVESGGGLVQAGGSLRLSCAASGLIFGYNAMGWYRQAPGKERELVAAISSSGGSTSYADSVKGRFTISRDNAKNTVYLQMNSLKPEDTAVYYCAAKPGRYADYDYNSWGQGTQVTVSS”, which “polyreactivity (PSR sort gate)” value is on record?
Its value is “low polyreactivity”.

For “QVQLVESGGGLVQAGGSLRLSCAASGSIFLAYDMGWYRQAPGKERELVAAISYTGGSTNYADSVKGRFTISRDNAKNTVYLQMNSLKPEDTAVYYCNTAGDLWIDYGYWGQGTQVTVSS”, which “polyreactivity (PSR sort gate)” value is on record?
The value was “low polyreactivity”.

With “QVQLVESGGGLVQAGGSLRLSCAAYGIIFYLYAMGWYRTAPGKERELVAAITWNGGRTYYADSVKGRFTISRDNAKNTVYLQMNSLKPEDTAVYYCNTDRRWRGTYTTRYDYWGQGTQVTVSS” as the sequence, how does the “polyreactivity (PSR sort gate)” value read?
Its value is “low polyreactivity”.

Which “polyreactivity (PSR sort gate)” value does the source give for “QVQLVESGAGLVQAGGSLRISCAASGITFYRNAMGWYRQAPGKERELVAAITWNGGRTYYADSVKGRFTISRDNAKNTVYLQMNSLNPEDTAVYYCAKRYGSTQSRYDFWGPGTQVTVSS” here?
The value was “high polyreactivity”.

With “QVQLVESGGGLVQAGGSLRLSCAASGRILIRNAMGWYRQAPGKERELVAAINRGGGSTYYADSVKGRFTISRDNAKNTVYLQMNSLKPEDTAVYYCAADRKAGYSRVDGDYWGQGTQVTVSS” as the sequence, how does the “polyreactivity (PSR sort gate)” value read?
The value was “low polyreactivity”.

Which “polyreactivity (PSR sort gate)” value does the source give for “QVQLVESGGGLVQAGGSLRLSCAASGSIILGYAMGWYRQAPGKERELVAAIRRSSAGTYYADSVKGRFTISRDNAKNTVYLQMISLKPEDTAVYYCAWYPATYRWAYYYWGQGTQVTVSS” here?
The value was “high polyreactivity”.

With “QVQLQESGGGLVQAGGSLRLICAASGTIFRFRYMGWHRQAPGKERELVAGINGGTTTYYADSVIGRFTISRDNAKNTVYVQMNSLKPDDTAVYNCAAGASRLTYYDYWGHGTQVTVSS” as the sequence, how does the “polyreactivity (PSR sort gate)” value read?
The value was “low polyreactivity”.

Which “polyreactivity (PSR sort gate)” value does the source give for “QVNLVESGGGLVQAGGSLRLSCAASGSIFSKNAMGWYRQAPGRERELVAAITSGASTNYADSVKGRFTISRDNAKNTVYLQMNSLKPEDTAVYYCASKRNGFWYGYWGQGTHVTVSS” here?
The value was “low polyreactivity”.

Which “polyreactivity (PSR sort gate)” value does the source give for “QVQLVESGGGLVQAGGSLRLSCAASVRTSRLYAMGWYRQAPGKERELDASITRGGSTYADSVKGRFTISRDNAKNTVYLQMNSLKPEDTAVDYCNAELYVPPYDDDYWGQGTQVTVSS” here?
The value was “high polyreactivity”.

For “QVQLVESGGGLVQAGGSLRLICAASGSTFDANAMGWYRQAPGKERELVAAITSNGGSTYYADSVKARFTISRDNAKNTVYLQMNSLKPEDTAVYYCATEQHTVQDYDFWGQGTQVTVSS”, which “polyreactivity (PSR sort gate)” value is on record?
Its value is “low polyreactivity”.

With “QVQLVESGGGLDQAGGSLPLSCAASGFTFGHYAMGWYRQAPGKERELVAAISSGDRTYYADSVKGRFTISRDNAKNTVYLQMNSLKPEDTAVYYCAADGIYTYEYWGQGTQVTVSS” as the sequence, how does the “polyreactivity (PSR sort gate)” value read?
The value was “low polyreactivity”.

With “QVQLVESGGGLVQAGGSLRLSCAASGFTLYYNAMGWYRQAPGKERELVAAINIGDSTNYADSVKGRFTISRDNAKNTVYLQMNSLKPEDTAVYYCAAVLLPYGVFYTVAINVDYWGQGTQVTVSS” as the sequence, how does the “polyreactivity (PSR sort gate)” value read?
The value was “low polyreactivity”.

Which “polyreactivity (PSR sort gate)” value does the source give for “QVQLVESGGGLVQAGGSIRLSCAASGRIFKAYAMGWYRQAPGKERELVAAITRGGRTKYADSVKGRFTLSRDNAKNTVYLQMNSLKPEYTAVYYCNPPRGVLYDYWGHGTQVTVSS” here?
The value was “high polyreactivity”.

With “QVQLVESGGGLVQAGGSLRLSCAASGRTFSYNAMGWYRQAPGKERELVAGISSRGGSTYYADSVKGRFTISRDNAKNTVYLQMNSLKPEDTAVYYCNALGRGKDSYSGVDYWGQGTQVTVSS” as the sequence, how does the “polyreactivity (PSR sort gate)” value read?
The value was “high polyreactivity”.

For “QVQLVDSGGGLVQAGGSLSLSCAASGSIFNVYGMGWYRQAPGKERELVARINSRGGITYYADSVKGRFTISRDNAKNTVYLQMNSLKPEDTAVYYCATDTQDLQGYSWFDYWGQGTQVTVSS”, which “polyreactivity (PSR sort gate)” value is on record?
The value was “high polyreactivity”.

Which “polyreactivity (PSR sort gate)” value does the source give for “QVQLVESGGGLVQAGGSLRLSCAASGSTFGWNAMGWYRQAPGKERELVAAISSRGGSTSYADSVKGRFTISRDNAKNSVYLQMNSLKPEYTAVYYCAAPYVYYRYGYWGLGTQVTVSS” here?
Its value is “low polyreactivity”.

Which “polyreactivity (PSR sort gate)” value does the source give for “QVQLVESGVGLVQAGGSLRLSCAASGFIFPTNTMGWYRQAPGKEREFVARITRSGTNTYYADSVKGRFTISRDNAKNTVYLQMNSLKPEDTAVYYCATRYYHFNYWGQATQVTVSS” here?
Its value is “high polyreactivity”.

Which “polyreactivity (PSR sort gate)” value does the source give for “QVQLEESGGGLVQAGGSLRLSCAASGIIFSPYAMGWYIQAPWKERELVAAINFSTGRTYYADSVKGRFTISRDNAKNTVYLQMNSLKPEDTAVYYCAAGKYPYVFRGGYDYWGQGTQVTVSS” here?
Its value is “low polyreactivity”.

Which “polyreactivity (PSR sort gate)” value does the source give for “QVQLVESGGVLVQSGGSLRLSCAASGRTFWWYAMGWYRQAPGKERALVAGISSGGSTYYADSVKGRFTISRDNAKYTVYLQMNSLKPEDTAVYYCAKTYWYPWRASLWHEYDYWGQGTQVTVSS” here?
Its value is “low polyreactivity”.

With “QVQLVESGGGLVQAGGSLRLSCAASGSTFGDNAMGWYRQAPGKEREFVATISWDTATTYYADSVKARFTISRDNAKNTVYLQMNSLKPEDTAVYYCAARATAYYTVPSYADVDYWGQGTQVTVSS” as the sequence, how does the “polyreactivity (PSR sort gate)” value read?
Its value is “low polyreactivity”.

Which “polyreactivity (PSR sort gate)” value does the source give for “QVQLVESGGGLVQAGGSLRLSCAASGSMFGYYAMGWYRQATGKERELVASIRRGSSTNYADSVKGRFTISRDNAKNTVYLQMNSLKPEDTAVYYCNAVLLSYDARGYSNLYDYWGQGPQVTVSS” here?
Its value is “low polyreactivity”.

Which “polyreactivity (PSR sort gate)” value does the source give for “QVQLVESGGGLVQAGGSLRLSCAASGRIFVAYAMGWYRQAPGKERELVAAITWSGTSTYADSVKGRFTISRDNAKNTVYLQMNSLKPEDTAVYYCAKKAIVSDQWDKYDYWGQGTQVTVSS” here?
Its value is “low polyreactivity”.
